The record followed here is paper PMC12284271, “Coupling chromosome organization to genome segregation in Archaea”.

The term Kd denotes the constant that tells how readily two partners part at equilibrium. A higher Kd goes with lower affinity.

Data set [1] deals with T1, SegB (SegBSs) (Saccharolobus (Sulfolobus) solfataricus P2), ORF:2e81311c.
T1 sequence: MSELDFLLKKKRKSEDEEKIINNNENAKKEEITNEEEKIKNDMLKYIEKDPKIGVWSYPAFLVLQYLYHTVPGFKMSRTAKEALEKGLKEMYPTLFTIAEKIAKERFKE
The experiment in a line: AFM. The following applies: EMSA and footprint: 10 mM Tris-HCl pH 7.5, 50 mM KCl, 1 mM DTT, 5 mM MgCl2, 2.5% glycerol, 0.05% NP-40, 1 ug poly(dI-dC), 37 C, 20 min, DNA 1-5 nM. For orientation: A gel shift assay detects complexes by their altered migration in electrophoresis.

The test system is the same in data set [2]. The experiment in a line: EMSA. Conditions: EMSA and footprint: 10 mM Tris-HCl pH 7.5, 50 mM KCl, 1 mM DTT, 5 mM MgCl2, 2.5% glycerol, 0.05% NP-40, 1 ug poly(dI-dC), 37 C, 20 min, DNA 1-5 nM.
Data set [3] shares this test system. The experiment in a line: DNase I footprinting. The following applies: EMSA and footprint: 10 mM Tris-HCl pH 7.5, 50 mM KCl, 1 mM DTT, 5 mM MgCl2, 2.5% glycerol, 0.05% NP-40, 1 ug poly(dI-dC), 37 C, 20 min, DNA 1-5 nM.
Data set [4] concerns the target SegB (Saccharolobus solfataricus) (S. solfataricus). The experiment in a line: MST; SegB labelled with NT-647 at 304 nM final; unlabelled SegA serially diluted 1:1 over fifteen tubes; 10 mM Tris-HCl pH 7.4, 100 mM NaCl, 0.05% Tween 20; 20% LED power, 40% MST power.
Another data set concerns the target T2, SegB (SegBSa) (Sulfolobus acidocaldarius, UniProt Q4JC57 1-151).
T2 sequence: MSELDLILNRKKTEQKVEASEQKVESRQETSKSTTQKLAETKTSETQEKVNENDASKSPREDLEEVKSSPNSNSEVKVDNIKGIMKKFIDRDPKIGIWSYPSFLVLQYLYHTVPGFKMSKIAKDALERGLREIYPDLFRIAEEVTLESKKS
The data set can be described thus: EMSA; EMSA and footprint: 10 mM Tris-HCl pH 7.5, 50 mM KCl, 1 mM DTT, 5 mM MgCl2, 2.5% glycerol, 0.05% NP-40, 1 ug poly(dI-dC), 37 C, 20 min; DNA 1-5 nM, SegB 0-1000. Conditions: protein: recombinant; (pET22b NdeI/XhoI); chain copies: 2; label: 5' biotin on strand 1; blunt.

On to “AGTAAGATAAATTTACTGAAGTCGTTGTTTTGCCTACTCCTCCTTTCTGATTTATTACTGTGACTATCATGTCTAGACTCTTCTATCTATAACGTTTAATAAGGAATTCTACATGATAATACTGACGAGTCCACCATATTATAATGATAATATTTATATGCTAGATTTTTAAAAAGTATAAGTATGTTTGAGAAGCTCTATAGTGCAATAATTTATTCTGATGAATTTAAAAAAATACTATTGGGAAGAGGTGTAGATGACTTAGAGATAGCTTCAGCCTACATAGCGT (double strand) [289 bp segAB upstream fragment (sites 1, 2, 3)]”, for which, in data set [1], the binding entry is “binds”.

In the case of “CTCAGCTGTCGGTAATACGATTTAGAAAGGATGAAATCGCTTATTCAATTTACTCTAATAAGCGACTAGAGTCTATAAGAAACACTCTAGAGTATTCTACCATAGAGGGAGAAGGCTTATTCAATGGATGCATTCTATGCGGTAAATGTGTTAGTGTTTGCCCTTACGGTAAACAAACTAATGACGTATTCCATACTCCT (double strand) [peak B-3 fragment]”, the binding result in data set [2] and in data set [3] was “binds” each time. On to “GAATGTCACAAGGTTCTTTTCCTATATACTTAAAACAAGAGAAAAGTAGAGAAATATTCTATTATACTCTCTTTTTCCTAAATTTTAATCTTAAACTTAAGGGAAGTAGAGTCTAGACTCACGTTAGGGTATGAAATTATCTCATCCTAATTTTTATTTGGCATAACGCTAATATGAAAAACATAAATAGTTAGAGTGTT (double strand) [peak D fragment]”, for which the binding result in data set [2] and in data set [3] was “binds” throughout. In the case of “GCATCTATGGCATCTGAATTGGGTATATAACCATATTCTACTTCTATTCCCATATCTTCATCACTAACGTAGAGATCAAGTAGTTTTCCTTTCTTCTCATACTCCACGAATACTCTATAGCCTAGACTCTTGAAGTAAGCAGATAATATTAATTGTAGACTGGAGTGGTTAATATTTGTGAATCCTAATTCATAAAAATC (double strand) [peak B-5 fragment]”, the binding result in data set [2] and in data set [3] was “binds” throughout. “GCTCGTAATTGAGGCCAAAATTCACAAAAATGATTACCTACAGACTCTAGAGTACTCTAAATATTTCAAGTACGGTATGGCAGTATTTCCATTTACTGGAGAGTGTAGAGTACCTAAAGGTTGGATTTGTATATTTAACACCACAAAGGATCAGTCTAGATTCTACTCTCTTCTTGAAGATTTATTATCTAGAGTTAAGT (double strand) [peak B-6 fragment]”: the binding result in data set [2] and in data set [3] was “binds” throughout. Consider “SegA (Saccharolobus solfataricus) (natural protein)”, for which the Kd in data set [4] was found to be 46 nM.

B1: saci0204(-47) 50 bp oligonucleotide (dsDNA)
DNA 1: TTATGAGAAGAATCTGAAATAAAGGGTATAGAGTTAAGAGTCTATATATG
DNA 2: CATATATAGACTCTTAACTCTATACCCTTTATTTCAGATTCTTCTCATAA
As for B1, the binding result with SegB (SegBSa) is reported as “binds”.
